Data on one protein can be found in article PMC5263234, “Dynamin-2 Stabilizes the HIV-1 Fusion Pore with a Low Oligomeric State” (Cell Reports, 2017).

Several values for one entry are separate records, joined by “and”; a condition that tells them apart may be missing. Equal entries are not always repeated.

Data set [1] concerns the molecule itself. Nature of the data set: number and brightness analysis with TIRF microscopy.
Data set [2] concerns the molecule itself. Nature of the data set: number and brightness analysis with TIRF microscopy; live TZM-bl cells expressing Dynamin-mCherry, exposed to HIV(JRFL) at MOI 10; 100 frames at 50 ms per frame; brightness calibrated against mCherry alone.

B1: dynamin-2 (natural protein, UniProt P50570 1-870, looked up)
chain: MGNRGMEELIPLVNKLQDAFSSIGQSCHLDLPQIAVVGGQSAGKSSVLENFVGRDFLPRGSGIVTRRPLILQLIFSKTEHAEFLHCKSKKFTDFDEVRQEIEAETDRVTGTNKGISPVPINLRVYSPHVLNLTLIDLPGITKVPVGDQPPDIEYQIKDMILQFISRESSLILAVTPANMDLANSDALKLAKEVDPQGLRTIGVITKLDLMDEGTDARDVLENKLLPLRRGYIGVVNRSQKDIEGKKDIRAALAAERKFFLSHPAYRHMADRMGTPHLQKTLNQQLTNHIRESLPALRSKLQSQLLSLEKEVEEYKNFRPDDPTRKTKALLQMVQQFGVDFEKRIEGSGDQVDTLELSGGARINRIFHERFPFELVKMEFDEKDLRREISYAIKNIHGVRTGLFTPDLAFEAIVKKQVVKLKEPCLKCVDLVIQELINTVRQCTSKLSSYPRLREETERIVTTYIREREGRTKDQILLLIDIEQSYINTNHEDFIGFANAQQRSTQLNKKRAIPNQGEILVIRRGWLTINNISLMKGGSKEYWFVLTAESLSWYKDEEEKEKKYMLPLDNLKIRDVEKGFMSNKHVFAIFNTEQRNVYKDLRQIELACDSQEDVDSWKASFLRAGVYPEKDQAENEDGAQENTFSMDPQLERQVETIRNLVDSYVAIINKSIRDLMPKTIMHLMINNTKAFIHHELLAYLYSSADQSSLMEESADQAQRRDDMLRMYHALKEALNIIGDISTSTVSTPVPPPVDDTWLQSASSHSPTPQRRPVSSIHPPGRPPAVRGPTPGPPLIPVPVGAAASFSAPPIPSRPGPQSVFANSDLFPAPPQIPSRPVRIPPGIPPGVPSRRPPAAPSRPTIIRPAEPSLLD
notes: dynamin-2 (DNM2), large GTPase; Each copy carries ONE fluorescent protein; FRET-FLIM used an EGFP-tagged copy together with an mCherry-tagged copy; number and brightness used the mCherry-tagged copy alone; The Addgene dynamin-2 plasmids may encode the rat protein (surmise); also called DNM2; Dyn-GFP; source: TZM-bl cells, transfected (plasmids obtained from Addgene), in live cells
Regarding B1, the stoichiometry N (commonly the number of molecules, sites or subunits per partner or assembly) in data set [1] is 8 and 6; in data set [2], 4.
